Experimental findings from patent publication US20150344570A1 (published 2015) are described below.

Assay [1] concerns the target T1, FcγRIa extracellular domain with C-terminal His tag (human, UniProt P12314 16-292).
T1 construct: extracellular domain; Expressed in FreeStyle293 cells; analyte in the SPR assay; also called FcgRI; 1a
As to the kind of experiment: SPR (Biacore), relative binding, HeCon Ab = 100. For orientation: Surface plasmon resonance follows binding to a sensor surface in real time, without labels.

For assay [2], the target named is T2, FcγRIIb extracellular domain with C-terminal His tag (human, UniProt P31994 43-217).
T2 construct: extracellular domain; Expressed in FreeStyle293 cells; analyte in the SPR assay; also called FcgRIIb; 2b
T2 sequence (looked up): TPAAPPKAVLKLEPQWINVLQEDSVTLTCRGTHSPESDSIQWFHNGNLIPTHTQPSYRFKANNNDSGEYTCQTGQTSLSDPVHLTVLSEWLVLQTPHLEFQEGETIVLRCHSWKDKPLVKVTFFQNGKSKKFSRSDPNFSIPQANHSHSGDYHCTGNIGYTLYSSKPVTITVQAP
As to the kind of experiment: SPR (Biacore), relative binding, HeCon Ab = 100.

The next assay deals with T3, FcγRIIb (human, UniProt P31994 43-217).
T3 construct: extracellular domain; also called FcgRIIb; 2b
T3 sequence (looked up): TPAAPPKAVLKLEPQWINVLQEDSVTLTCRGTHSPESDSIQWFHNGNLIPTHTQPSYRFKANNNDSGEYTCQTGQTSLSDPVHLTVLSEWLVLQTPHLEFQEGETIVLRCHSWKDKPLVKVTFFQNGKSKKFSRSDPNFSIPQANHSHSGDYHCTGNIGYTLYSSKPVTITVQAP
As to the kind of experiment: SPR (Biacore), relative binding.

T1 sequence (P12314 16-292): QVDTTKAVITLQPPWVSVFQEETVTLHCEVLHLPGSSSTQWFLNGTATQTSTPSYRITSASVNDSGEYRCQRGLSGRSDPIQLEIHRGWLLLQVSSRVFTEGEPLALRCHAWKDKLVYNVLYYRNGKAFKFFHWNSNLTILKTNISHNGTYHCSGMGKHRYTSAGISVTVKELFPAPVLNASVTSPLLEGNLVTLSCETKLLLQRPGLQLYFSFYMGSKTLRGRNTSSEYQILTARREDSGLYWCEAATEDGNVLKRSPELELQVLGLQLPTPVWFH

B1: GpH7-A5/GpH7-B3 variant E269_01G/GpL16-k0 (He Ab) (antibody, human IgG1, kappa)
heavy 1: not shown
heavy 2: not shown
light: DIVMTQSPLSLPVTPGEPASISCQASESLVHSNRNTYLHWYLQKPGQSPQLLIYKVSNRFSGVPDRFSGSGSGTDFTLKISRVEAEDVGVYYCSQNTHVPPTFGQGTKVEIERTVAAPSVFIFPPSDEQLKSGTASVVCLLNNFYPREAKVQWKVDNALQSGNSQESVTEQDSKDSTYSLSSTLTLSKADYEKHKVYACEVTHQGLSSPVTKSFNRGEC
notes: He Ab: mutation in one H chain only
For the molecule B1, in assay [1], the He/Con_1a is 104 % of HeCon Ab (=100). The He/Con_2b in assay [2] was 51.5 % of HeCon Ab (=100).

B2: GpH7-A5/GpH7-B3 variant E269_18N/GpL16-k0 (He Ab) (antibody, human IgG1, kappa)
heavy 1: not shown
heavy 2: not shown
light: DIVMTQSPLSLPVTPGEPASISCQASESLVHSNRNTYLHWYLQKPGQSPQLLIYKVSNRFSGVPDRFSGSGSGTDFTLKISRVEAEDVGVYYCSQNTHVPPTFGQGTKVEIERTVAAPSVFIFPPSDEQLKSGTASVVCLLNNFYPREAKVQWKVDNALQSGNSQESVTEQDSKDSTYSLSSTLTLSKADYEKHKVYACEVTHQGLSSPVTKSFNRGEC
notes: as for B1
As to B2, the He/Con_1a in assay [1] was 102 % of HeCon Ab (=100). Further, the He/Con_2b in assay [2] is 44.8 % of HeCon Ab (=100).

B3: GpH7-A5/GpH7-B3 variant D265_19Q/GpL16-k0 (antibody, human IgG1, kappa)
heavy 1: not shown
heavy 2: not shown
light: DIVMTQSPLSLPVTPGEPASISCQASESLVHSNRNTYLHWYLQKPGQSPQLLIYKVSNRFSGVPDRFSGSGSGTDFTLKISRVEAEDVGVYYCSQNTHVPPTFGQGTKVEIERTVAAPSVFIFPPSDEQLKSGTASVVCLLNNFYPREAKVQWKVDNALQSGNSQESVTEQDSKDSTYSLSSTLTLSKADYEKHKVYACEVTHQGLSSPVTKSFNRGEC
notes: mutation in the GpH7-B3 chain only; also called He Ab
Regarding B3, in the assay with FcγRIIb, the He/Con_2b was 33.4 % of GpH7-A5/GpH7-B3/GpL16-k0.

B4: GpH7-A5/GpH7-B3 variant E269_07I/GpL16-k0 (He Ab) (antibody, human IgG1, kappa)
heavy 1: not shown
heavy 2: not shown
light: DIVMTQSPLSLPVTPGEPASISCQASESLVHSNRNTYLHWYLQKPGQSPQLLIYKVSNRFSGVPDRFSGSGSGTDFTLKISRVEAEDVGVYYCSQNTHVPPTFGQGTKVEIERTVAAPSVFIFPPSDEQLKSGTASVVCLLNNFYPREAKVQWKVDNALQSGNSQESVTEQDSKDSTYSLSSTLTLSKADYEKHKVYACEVTHQGLSSPVTKSFNRGEC
notes: as for B1
As to B4, in assay [1], the He/Con_1a was 103 % of HeCon Ab (=100). Besides, in assay [2], the He/Con_2b was 43.9 % of HeCon Ab (=100).

B5: GpH7-A5/GpH7-B3 variant E269_15Y/GpL16-k0 (He Ab) (antibody, human IgG1, kappa)
heavy 1: not shown
heavy 2: not shown
light: DIVMTQSPLSLPVTPGEPASISCQASESLVHSNRNTYLHWYLQKPGQSPQLLIYKVSNRFSGVPDRFSGSGSGTDFTLKISRVEAEDVGVYYCSQNTHVPPTFGQGTKVEIERTVAAPSVFIFPPSDEQLKSGTASVVCLLNNFYPREAKVQWKVDNALQSGNSQESVTEQDSKDSTYSLSSTLTLSKADYEKHKVYACEVTHQGLSSPVTKSFNRGEC
notes: as for B1
Consider B5, for which the He/Con_1a in assay [1] is 106 % of HeCon Ab (=100). For the same molecule, the He/Con_2b in assay [2] was 44.7 % of HeCon Ab (=100).

B6: GpH7-A5/GpH7-B3 variant E269_08L/GpL16-k0 (He Ab) (antibody, human IgG1, kappa)
heavy 1: not shown
heavy 2: not shown
light: DIVMTQSPLSLPVTPGEPASISCQASESLVHSNRNTYLHWYLQKPGQSPQLLIYKVSNRFSGVPDRFSGSGSGTDFTLKISRVEAEDVGVYYCSQNTHVPPTFGQGTKVEIERTVAAPSVFIFPPSDEQLKSGTASVVCLLNNFYPREAKVQWKVDNALQSGNSQESVTEQDSKDSTYSLSSTLTLSKADYEKHKVYACEVTHQGLSSPVTKSFNRGEC
notes: as for B1
With B6, the He/Con_1a in assay [1] is 104 % of HeCon Ab (=100). In addition, the He/Con_2b in assay [2] was 42.9 % of HeCon Ab (=100).

B7: GpH7-A5/GpH7-B3 variant E269_02A/GpL16-k0 (He Ab) (antibody, human IgG1, kappa)
heavy 1: not shown
heavy 2: not shown
light: DIVMTQSPLSLPVTPGEPASISCQASESLVHSNRNTYLHWYLQKPGQSPQLLIYKVSNRFSGVPDRFSGSGSGTDFTLKISRVEAEDVGVYYCSQNTHVPPTFGQGTKVEIERTVAAPSVFIFPPSDEQLKSGTASVVCLLNNFYPREAKVQWKVDNALQSGNSQESVTEQDSKDSTYSLSSTLTLSKADYEKHKVYACEVTHQGLSSPVTKSFNRGEC
notes: as for B1
Consider B7, for which, in assay [1], the He/Con_1a was 104 % of HeCon Ab (=100). Also, in assay [2], the He/Con_2b was 49.9 % of HeCon Ab (=100).

B8: GpH7-A5/GpH7-B3 variant E269_03V/GpL16-k0 (He Ab) (antibody, human IgG1, kappa)
heavy 1: not shown
heavy 2: not shown
light: DIVMTQSPLSLPVTPGEPASISCQASESLVHSNRNTYLHWYLQKPGQSPQLLIYKVSNRFSGVPDRFSGSGSGTDFTLKISRVEAEDVGVYYCSQNTHVPPTFGQGTKVEIERTVAAPSVFIFPPSDEQLKSGTASVVCLLNNFYPREAKVQWKVDNALQSGNSQESVTEQDSKDSTYSLSSTLTLSKADYEKHKVYACEVTHQGLSSPVTKSFNRGEC
notes: as for B1
Consider B8, for which the He/Con_1a in assay [1] was 103 % of HeCon Ab (=100). For the same molecule, the He/Con_2b in assay [2] was 45.1 % of HeCon Ab (=100).

B9: GpH7-A5/GpH7-B3 variant E269_16H/GpL16-k0 (He Ab) (antibody, human IgG1, kappa)
heavy 1: not shown
heavy 2: not shown
light: DIVMTQSPLSLPVTPGEPASISCQASESLVHSNRNTYLHWYLQKPGQSPQLLIYKVSNRFSGVPDRFSGSGSGTDFTLKISRVEAEDVGVYYCSQNTHVPPTFGQGTKVEIERTVAAPSVFIFPPSDEQLKSGTASVVCLLNNFYPREAKVQWKVDNALQSGNSQESVTEQDSKDSTYSLSSTLTLSKADYEKHKVYACEVTHQGLSSPVTKSFNRGEC
notes: as for B1
Consider B9, for which, in assay [1], the He/Con_1a was 106 % of HeCon Ab (=100). Further, in assay [2], the He/Con_2b is 38.5 % of HeCon Ab (=100).
